In the assay the target is E. coli RNAP as used in the ITC experiments (E. coli) (UniProt P0A7Z4). The assay is described as follows: ITC. A general note: In ITC the heat of successive injections is recorded.

By Kd is commonly meant the concentration at which binding is half-saturated. A high value points to lower affinity. “Escherichia phage protein EP1 (from UniProt A0A0N9RSC1 1-107) (natural protein)” displayed a Kd of 34 nM. This counts as double-digit nanomolar.
